Assay results from patent publication US12697350B2, “Methods and compositions for treating a premature termination codon-mediated disorder” (Tevard Biosciences, Inc., priority 2019, dated 2026).

Test system: Neuro-2a cells
Format: cell-based, mouse
Method: FIG. 23 is a graph depicting cell viability from FIG. 22 as measured by flow cytometry at ~48 hours post transfection. Neuro-2a cells were transfected with an expression construct containing the EGFP-R96X-TGA reporter (“GFP-PTC”) and either (i) transfected with an expression construct including the ArgTCA suppressor tRNA #115 (SEQ ID NO: 18) at the indicated copy number on the same construct, or (ii) treated with ataluren at the indicated concentration, (iii) treated with gentamicin at the indication concentration, or (iv) treated with G418 at the indicated concentration. For all experimental conditions, cell culture medium was replaced with fresh medium ~6 hour after transfection and the indicated drugs at the indicated concentrations were added at this point. A reporter containing wildtype GFP without a PTC (“WT-GFP”) was used as a control. “Mock” indicates mock transfected cells. “4×TCG” indicates cells transfected with an expression construct that contains four copies of a wild-type Arg-tRNA with a TCG anticodon and the EGFP-R96X-TGA reporter. Cell viability was assessed by flow cytometry using 7-Amino Actinomycin D (7-AAD), a membrane impermeant dye that is generally excluded from viable cells.
FIG. 34 is a graph depicting cell viability from FIG. 33 as measured by flow cytometry at ~48 hours post transfection. […] Cell viability was assessed by flow cytometry using 7-Amino Actinomycin D (7-AAD), a membrane impermeant dye that is generally excluded from viable cells.
FIG. 36 is a graph depicting cell viability from FIG. 35 as measured by flow cytometry at ~48 hours post transfection. […] Cell viability was assessed by flow cytometry using 7-Amino Actinomycin D (7-AAD), a membrane impermeant dye that is generally excluded from viable cells. […]

B1: tRNA-Arg-TCT-2-1-TCA-SUP_no intron (nucleic acid)
chain: GGCTCCGTGGCGCAATGGATAGCGCATTGGACTTCAAATTCAAAGGTTCCGGGTTCGAGTCCCGGCGGAGTCG
modifications: chemistry not fully specified
cell viability: not accompanied by a decrease in cell viability
